Positions count from the first letter of the chain named. In names and notes the source's numbering stands.
B1: IQGAP1 GRD1-RGCT wild type (aa 877-1558) (domain or fragment, human, UniProt P46940 877-1558, looked up)
chain: DQSDQDFQEELDLMKMREEVITLIRSNQQLENDLNLMDIKIGLLVKNKITLQDVVSHSKKLTKKNKEQLSDMMMINKQKGGLKALSKEKREKLEAYQHLFYLLQTNPTYLAKLIFQMPQNKSTKFMDSVIFTLYNYASNQREEYLLLRLFKTALQEEIKSKVDQIQEIVTGNPTVIKMVVSFNRGARGQNALRQILAPVVKEIMDDKSLNIKTDPVDIYKSWVNQMESQTGEASKLPYDVTPEQALAHEEVKTRLDSSIRNMRAVTDKFLSAIVSSVDKIPYGMRFIAKVLKDSLHEKFPDAGEDELLKIIGNLLYYRYMNPAIVAPDAFDIIDLSAGGQLTTDQRRNLGSIAKMLQHAASNKMFLGDNAHLSIINEYLSQSYQKFRRFFQTACDVPELQDKFNVDEYSDLVTLTKPVIYISIGEIINTHTLLLDHQDAIAPEHNDPIHELLDDLGEVPTIESLIGESSGNLNDPNKEALAKTEVSLTLTNKFDVPGDENAEMDARTILLNTKRLIVDVIRFQPGETLTEILETPATSEQEAEHQRAMQRRAIRDAKTPDKMKKSKSVKEDSNLTLQEKKEKIQTGLKKLTELGTVDPKNKYQELINDIARDIRNQRRYRQRRKAELVKLQQTYAALNSKATFYGEQVDYYKSYIKTCLDNLASKGKVSKKPREMKGKKSKK
notes: human IQGAP1, GRD and RGCT domains, lacks the last 99 amino acids, aa 877-1558; also called GRD1-RGCT^WT; IQGAP1^877-1558
B2: IQGAP1 GRD1-RGCT S1441E (aa 877-1558) (domain or fragment)
chain: B1 chain with S565E
notes: human IQGAP1 aa 877-1558 with the phosphomimetic mutation S1441E, from the vector pET46 EkLIC; source: E. coli (pLysS BL21(DE3), CodonPlusRIL or BL21(Rosetta)), purified (Ni-NTA, gel filtration)
B3: IQGAP1 GRD1-RGCT S1443E (aa 877-1558) (domain or fragment)
chain: B1 chain with S567E
notes: human IQGAP1 aa 877-1558 with the phosphomimetic mutation S1443E (printed as S1143E in the methods, S1443E everywhere else), from the vector pET46 EkLIC; source: E. coli (pLysS BL21(DE3), CodonPlusRIL or BL21(Rosetta)), purified (Ni-NTA, gel filtration)
B4: IQGAP1 GRD1-CT (aa 863-1657) (domain or fragment)
chain: DPPMVVVRKFVHLLDQSDQDFQEELDLMKMREEVITLIRSNQQLENDLNLMDIKIGLLVKNKITLQDVVSHSKKLTKKNKEQLSDMMMINKQKGGLKALSKEKREKLEAYQHLFYLLQTNPTYLAKLIFQMPQNKSTKFMDSVIFTLYNYASNQREEYLLLRLFKTALQEEIKSKVDQIQEIVTGNPTVIKMVVSFNRGARGQNALRQILAPVVKEIMDDKSLNIKTDPVDIYKSWVNQMESQTGEASKLPYDVTPEQALAHEEVKTRLDSSIRNMRAVTDKFLSAIVSSVDKIPYGMRFIAKVLKDSLHEKFPDAGEDELLKIIGNLLYYRYMNPAIVAPDAFDIIDLSAGGQLTTDQRRNLGSIAKMLQHAASNKMFLGDNAHLSIINEYLSQSYQKFRRFFQTACDVPELQDKFNVDEYSDLVTLTKPVIYISIGEIINTHTLLLDHQDAIAPEHNDPIHELLDDLGEVPTIESLIGESSGNLNDPNKEALAKTEVSLTLTNKFDVPGDENAEMDARTILLNTKRLIVDVIRFQPGETLTEILETPATSEQEAEHQRAMQRRAIRDAKTPDKMKKSKSVKEDSNLTLQEKKEKIQTGLKKLTELGTVDPKNKYQELINDIARDIRNQRRYRQRRKAELVKLQQTYAALNSKATFYGEQVDYYKSYIKTCLDNLASKGKVSKKPREMKGKKSKKISLKYTAARLHEKGVLLEIEDLQVNQFKNVIFEISPTEEVGDFEVKAKFMGVQMETFMLHYQDLLQLQYEGVAVMKLFDRAKVNVNLLIFLLNKKFYGK
notes: human IQGAP1, GRD, RGCT and CT domains, aa 863-1657; The GST tag was cleaved 'if needed'; also called C-terminal half of IQGAP1; C-terminal 795 amino acids of IQGAP1
B5: IQGAP1 GRD2 (aa 962-1345) (domain or fragment, human, UniProt P46940 962-1345, looked up)
chain: SKEKREKLEAYQHLFYLLQTNPTYLAKLIFQMPQNKSTKFMDSVIFTLYNYASNQREEYLLLRLFKTALQEEIKSKVDQIQEIVTGNPTVIKMVVSFNRGARGQNALRQILAPVVKEIMDDKSLNIKTDPVDIYKSWVNQMESQTGEASKLPYDVTPEQALAHEEVKTRLDSSIRNMRAVTDKFLSAIVSSVDKIPYGMRFIAKVLKDSLHEKFPDAGEDELLKIIGNLLYYRYMNPAIVAPDAFDIIDLSAGGQLTTDQRRNLGSIAKMLQHAASNKMFLGDNAHLSIINEYLSQSYQKFRRFFQTACDVPELQDKFNVDEYSDLVTLTKPVIYISIGEIINTHTLLLDHQDAIAPEHNDPIHELLDDLGEVPTIESLIGESS
notes: human IQGAP1, GAP-related domain fragment GRD2, aa 962-1345, from the vector pMCSG7; source: E. coli (pLysS BL21(DE3), CodonPlusRIL or BL21(Rosetta)), purified (Ni-NTA, gel filtration)
B6: IQGAP1 RGCT (aa 1276-1575) (domain or fragment, human, UniProt P46940 1276-1575, looked up)
chain: QDKFNVDEYSDLVTLTKPVIYISIGEIINTHTLLLDHQDAIAPEHNDPIHELLDDLGEVPTIESLIGESSGNLNDPNKEALAKTEVSLTLTNKFDVPGDENAEMDARTILLNTKRLIVDVIRFQPGETLTEILETPATSEQEAEHQRAMQRRAIRDAKTPDKMKKSKSVKEDSNLTLQEKKEKIQTGLKKLTELGTVDPKNKYQELINDIARDIRNQRRYRQRRKAELVKLQQTYAALNSKATFYGEQVDYYKSYIKTCLDNLASKGKVSKKPREMKGKKSKKISLKYTAARLHEKGVLL
notes: human IQGAP1, RASGAP C-terminal domain, aa 1276-1575; source: E. coli (pLysS BL21(DE3), CodonPlusRIL or BL21(Rosetta)), purified
B7: GST-fused IQGAP1 RGCT-CT (aa 1276-1657) (domain or fragment, human, UniProt P46940 1276-1657, looked up)
chain: QDKFNVDEYSDLVTLTKPVIYISIGEIINTHTLLLDHQDAIAPEHNDPIHELLDDLGEVPTIESLIGESSGNLNDPNKEALAKTEVSLTLTNKFDVPGDENAEMDARTILLNTKRLIVDVIRFQPGETLTEILETPATSEQEAEHQRAMQRRAIRDAKTPDKMKKSKSVKEDSNLTLQEKKEKIQTGLKKLTELGTVDPKNKYQELINDIARDIRNQRRYRQRRKAELVKLQQTYAALNSKATFYGEQVDYYKSYIKTCLDNLASKGKVSKKPREMKGKKSKKISLKYTAARLHEKGVLLEIEDLQVNQFKNVIFEISPTEEVGDFEVKAKFMGVQMETFMLHYQDLLQLQYEGVAVMKLFDRAKVNVNLLIFLLNKKFYGK
notes: human IQGAP1, RGCT and CT domains, aa 1276-1657; source: E. coli (pLysS BL21(DE3), CodonPlusRIL or BL21(Rosetta)), purified; not shown: GST, N-terminal, kept

Target: T1, RAC1 (aa 1-179) (human, UniProt P63000 1-179)
Assay: fluorescence polarisation; IQGAP1 variant titrated to mGppNHp-bound RHO protein (1 μM); equilibrium Kd (eKd), quadratic fit; 30 mM Tris/HCl pH 7.5, 150 mM NaCl, 5 mM MgCl2, 3 mM DTT, 25 °C
Settings: both partners purified

| Kd | Binder |
| --- | --- |
| 4.6 µM | B1 |
| 6.7 µM | B2 |
| 26.7 µM | B3 |
| 5.53 µM | B4 |

Target: T1, RAC1 (aa 1-179)
Assay: stopped-flow fluorometry; mGppNHp-bound RHO protein (0.2 μM) rapidly mixed with IQGAP1 variant (2 μM, or 2-12 μM for kon); koff by displacement with 10 μM non-fluorescent GppNHp-bound GTPase; Kd = koff/kon; 30 mM Tris-HCl pH 7.5, 10 mM KH2PO4/K2HPO4, 5 mM MgCl2, 3 mM DTT
Settings: both partners purified

| Kd | Binder |
| --- | --- |
| 2.81 µM | B1 |
| 3.21 µM | B2 |
| 6.26 µM | B3 |
| 0.94 µM | B4 |

Target: the molecule itself
Assay: SEC; analytical SEC, Superdex 200 10/30, calibrated with standard proteins; 100 μM protein in 200 μl; 30 mM Tris/HCl pH 7.5, 150 mM NaCl, 5 mM MgCl2, 3 mM DTT; 0.5 ml/min
Settings: not given

| Binder | stoichiometry N | binding result |
| --- | --- | --- |
| B1 | 2 |  |
| B5 | 2 |  |
| B6 |  | binds |
| B7 |  | binds |
